Data from US20250213627A1, “RECOMBINANT MICROORGANISM-BASED METHODS AND COMPOSITIONS FOR TREATMENT OF DISEASE” (Baylor College of Medicine, priority 2021, published 2025).

Biological target: other channels
Assay: cell-based or functional assay

B1: synthetic ShK-235 (peptide)
peptide: RSCIDTIPKSRCTAFKCKHSIKYRLSFCRKTCGTCA
modifications: here or on the partner: 3 disulfide bonds (oxidatively folded synthetic peptide)
selectivity for Kv1.3 over other channels (whole-cell patch-clamp): > 2200 fold
